From patent publication US20230129812A1, “COMPOSITIONS AND METHODS FOR TREATING PULMONARY HYPERTENSION” (Acceleron Pharma Inc., priority 2020, published 2023)
Positions count from the first letter of the chain named. Names and notes keep the numbering of the source.

T1: activin A (Homo sapiens, UniProt P08476)
T1 sequence (P08476 311-426): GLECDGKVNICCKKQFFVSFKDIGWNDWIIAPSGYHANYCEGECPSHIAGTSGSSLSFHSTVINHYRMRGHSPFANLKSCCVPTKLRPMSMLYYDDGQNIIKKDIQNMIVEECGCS

T2: activin B (Homo sapiens, UniProt P09529)
T2 sequence (P09529 293-407): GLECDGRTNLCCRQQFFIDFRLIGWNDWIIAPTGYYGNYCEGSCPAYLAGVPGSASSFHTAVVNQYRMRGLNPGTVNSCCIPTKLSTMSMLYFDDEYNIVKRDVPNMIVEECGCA

T3: GDF11 (Homo sapiens, UniProt O95390)
T3 sequence (O95390 299-407): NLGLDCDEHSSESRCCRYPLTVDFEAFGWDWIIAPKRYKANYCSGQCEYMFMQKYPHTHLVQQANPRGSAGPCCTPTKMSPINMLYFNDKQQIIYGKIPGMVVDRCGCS

T4: GDF8 (Homo sapiens, UniProt O14793)
T4 sequence (O14793 267-375): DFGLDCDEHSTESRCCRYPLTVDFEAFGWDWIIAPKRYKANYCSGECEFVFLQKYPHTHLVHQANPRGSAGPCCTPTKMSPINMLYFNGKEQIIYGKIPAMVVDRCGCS

B1: ActRIIB(20-134)-hFc: extracellular domain of human ActRIIB (residues 20-134, R64) fused to a human Fc domain with a minimal linker (protein)
chain: GRGEAETRECIYYNANWELERTNQSGLERCEGEQDKRLHCYASWRNSSGTIELVKKGCWLDDFNCYDRQECVATEENPQVYFCCCEGNFCNERFTHLPEAGGPEVTYEPPPTAPTGGGTHTCPPCPAPELLGGPSVFLFPPKPKDTLMISRTPEVTCVVVDVSHEDPEVKFNWYVDGVEVHNAKTKPREEQYNSTYRVVSVLTVLHQDWLNGKEYKCKVSNKALPVPIEKTISKAKGQPREPQVYTLPPSREEMTKNQVSLTCLVKGFYPSDIAVEWESNGQPENNYKTTPPVLDSDGSFFLYSKLTVDKSRWQQGNVFSCSVMHEALHNHYTQKSLSLSPGK
B2: ActRIIB(A24N 20-134)-hFc: ActRIIB-Fc variant with A24N substitution, residues 20-134 (protein)
chain: B1 chain with A5N
B3: ActRIIB(L79E 20-134)-hFc: alternative form with a glutamate rather than an aspartate at position 79 (protein)
chain: B1 chain with L60E
B4: ActRIIB(L79D 20-134)-hFc: ActRIIB amino acids 20-134 with an L79D substitution fused to a human Fc domain (protein)
chain: B1 chain with L60D
B5: ActRIIB(R64K 20-129)-hFc: ActRIIB-Fc variant with R64K substitution, residues 20-129 (protein)
chain: GRGEAETRECIYYNANWELERTNQSGLERCEGEQDKRLHCYASWKNSSGTIELVKKGCWLDDFNCYDRQECVATEENPQVYFCCCEGNFCNERFTHLPEAGGPEVTYEPPGGGTHTCPPCPAPELLGGPSVFLFPPKPKDTLMISRTPEVTCVVVDVSHEDPEVKFNWYVDGVEVHNAKTKPREEQYNSTYRVVSVLTVLHQDWLNGKEYKCKVSNKALPVPIEKTISKAKGQPREPQVYTLPPSREEMTKNQVSLTCLVKGFYPSDIAVEWESNGQPENNYKTTPPVLDSDGSFFLYSKLTVDKSRWQQGNVFSCSVMHEALHNHYTQKSLSLSPGK
B6: ActRIIB(R64K 20-134)-hFc: ActRIIB-Fc variant with R64K substitution, residues 20-134 (protein)
chain: B1 chain with R45K

target: T1, activin A; test: A-204 reporter gene assay, pGL3(CAGA)12 luciferase; assay type: cell-based; conditions: A-204 reporter gene assay
Text: (§1) An A-204 reporter gene assay was used to evaluate the effects of ActRIIB-Fc proteins and ActRIIB variant Fc fusion polypeptides on signaling by GDF-11 and activin A. Cell line: human rhabdomyosarcoma (derived from muscle). Reporter vector: pGL3(CAGA)12 (described in Dennler et al, 1998, EMBO 17: 3091-3100). The CAGA12 motif is present in TGF-beta responsive genes (e.g., PAI-1 gene), so this vector is of general use for factors signaling through SMADs.
(§2) Day 1: Split A-204 cells into 48-well plate.
(§3) Day 2: A-204 cells transfected with 10 ug pGL3(CAGA)12 or pGL3(CAGA)12(10 ug)+pRLCMV (1 pg) and Fugene.
(§4) Day 3: Add factors (diluted into medium+0.1% BSA). Inhibitors need to be preincubated with factors for 1 hr before adding to cells. Six hrs later, cells were rinsed with PBS and lysed.
(§5) This is followed by a luciferase assay.
(§6) Activity of ActRIIB-Fc proteins and ActRIIB variant Fc fusion polypeptides was tested in a cell-based assay as described above. Some variants were tested in different C-terminal truncation constructs. As discussed above, truncations of five or fifteen amino acids caused reduction in activity. […]

inhibition of activin A signaling	Molecule
potent inhibitor	B1
equivalent to the wild-type molecule	B2
substantial loss of activin A inhibition	B3
substantial loss of activin A inhibition	B4

same assay, conditions: Table 9; cell-based A-204 assay

Molecule	Activin Inhibition Activity
B5	+++ (Good (wild-type) activity (roughly 1 × 10^−8 KI))
B1	+++ (Good (wild-type) activity (roughly 1 × 10^−8 KI))
B6	+++ (Good (wild-type) activity (roughly 1 × 10^−8 KI))
B2	+++ (Good (wild-type) activity (roughly 1 × 10^−8 KI))
B3	+ (Poor activity (roughly 1 × 10^−6 KI))
B4	+ (Poor activity (roughly 1 × 10^−6 KI))

target: T2, activin B; test: Biacore ligand affinity of ActRIIB-hFc forms, steady-state affinity fit; assay type: binding; conditions: Table 12; Kd by steady-state affinity fit; read-out: Activin B (Kd e−11)
Protocol: (§7) Affinities of several ligands for ActRIIB(25-131)-hFc and its full-length counterpart ActRIIB(20-134)-hFc were evaluated in vitro with a Biacore™ instrument, and the results are summarized in Table 8 below. Kd values were obtained by steady-state affinity fit due to very rapid association and dissociation of the complex, which prevented accurate determination of kon and koff. ActRIIB(25-131)-hFc bound, for example, activin A, activin B, and GDF11 with high affinity.
(§8) The affinity of ActRIIB variants and other ActRIIB-hFc proteins for several ligands was evaluated in vitro with a Biacore™ instrument. Kd values were obtained by steady-state affinity fit due to the very rapid association and dissociation of the complex, which prevented accurate determination of kon and koff.

Kd [nM]	Molecule
0.012	B1
0.788	B4

target: T1, activin A; test: as above; assay type: binding; conditions: Table 12; Kd by steady-state affinity fit; read-out: Activin A (Kd e−11)
Protocol: as §7, §8

Kd [nM]	Molecule
0.016	B1
13.5	B4

target: T3, GDF11; test: as above; assay type: binding; conditions: Table 12; Kd by steady-state affinity fit; read-out: GDF11 (Kd e−11)
Protocol: as §7, §8

Kd [nM]	Molecule
0.036	B1
0.123	B4

target: T4, GDF8; test: Biacore assay, ActRIIB-Fc captured with anti-hFc antibody, ligand injected (Example 8); assay type: binding; conditions: GDF8; Table 10
Protocol: (§9) Binding of certain ActRIIB-Fc proteins and ActRIIB variant Fc fusion polypeptides to ligands was tested in a Biacore™ assay.
(§10) The ActRIIB-Fc variants or wild-type protein were captured onto the system using an anti-hFc antibody. Ligands were injected and flowed over the captured receptor proteins.

Koff [s⁻¹]	Molecule
0.000209	B5
3.45e-05	B1
4.71e-05	B6
0.0009	B3
0.00083	B4

same assay, conditions: cell-free Biacore assay, Example 8

myostatin (GDF8) binding	Molecule
retains myostatin and GDF11 binding	B3
retains myostatin and GDF11 binding	B4

target: T1, activin A; test: as above; assay type: binding; conditions: Activin A; Table 10
Protocol: as §9, §10

Koff [s⁻¹]	KD (M)	Molecule
0.000628		B5
0.000159		B1
0.000325		B6
0.000346		B2
	Low binding	B3
	Low binding	B4

same assay, conditions: cell-free Biacore assay, Example 8

Molecule	activin A binding
B2	retains ligand-binding activity that is similar to that of the ActRIIB(20-134)-hFc molecule
B3	markedly decreased (non-quantifiable) binding to activin A
B4	markedly decreased (non-quantifiable) binding to activin A

target: T3, GDF11; test: as above; assay type: binding; conditions: GDF11; Table 10
Protocol: as §9, §10

Koff [s⁻¹]	Molecule
0.000113	B1
2.41e-05	B6
6.35e-05	B2
0.000274	B3
0.000439	B4

same assay, conditions: cell-free Biacore assay, Example 8

GDF11 binding	Molecule
retains myostatin and GDF11 binding	B3
retains myostatin and GDF11 binding	B4

Molecule	GDF11 binding
B2	retains ligand-binding activity that is similar to that of the ActRIIB(20-134)-hFc molecule

target: T4, GDF8; test: A-204 reporter gene assay, pGL3(CAGA)12 luciferase; assay type: cell-based; conditions: not given
Text: as §1, §2, §3, §4, §5
As described below, ActRIIB variants were also tested in this assay.
In addition, an A-204 Reporter Gene Assay was used to evaluate the effects of ALK4-Fc:ActRIIB-Fc heterodimer and ActRIIB-Fc:ActRIIB-Fc homodimer on signaling by activin A, activin B, GDF11, GDF8, BMP10, and BMP9. Cell line: Human Rhabdomyosarcoma (derived from muscle). Reporter vector: pGL3(CAGA)12 (as described in Dennler et al, 1998, EMBO 17: 3091-3100). The CAGA12 motif is present in TGFβ responsive genes (PAI-1 gene), so this vector is of general use for factors signaling through Smads. An exemplary A-204 Reporter Gene Assay is outlined below. • Day 1: Split A-204 cells into 48-well plate. • Day 2: A-204 cells transfected with 10 ug pGL3(CAGA)12 or pGL3(CAGA)12(10 ug)+pRLCMV (1 ug) and Fugene. • Day 3: Add factors (diluted into medium+0.1% BSA). Inhibitors need to be pre-incubated with Factors for about one hr before adding to cells. About six hrs later, cells are rinsed with PBS and then lysed.
Following the above steps, a Luciferase assay was performed.

inhibition of GDF8 signaling	Molecule
potent inhibitor	B1

target: T3, GDF11; test: A-204 reporter gene assay, pGL3(CAGA)12 luciferase; assay type: cell-based; conditions: A-204 reporter gene assay
Text: as §1, §2, §3, §4, §5, §6

inhibition of GDF11 signaling	Molecule
potent inhibitor	B1
equivalent to the wild-type molecule	B2
almost wild-type inhibition of GDF11	B3
almost wild-type inhibition of GDF11	B4

same assay, conditions: Table 9; cell-based A-204 assay

Molecule	GDF11 Inhibition Activity
B5	+++ (Good (wild-type) activity (roughly 1 × 10^−8 KI))
B1	+++ (Good (wild-type) activity (roughly 1 × 10^−8 KI))
B6	+++ (Good (wild-type) activity (roughly 1 × 10^−8 KI))
B2	+++ (Good (wild-type) activity (roughly 1 × 10^−8 KI))
B3	+++ (Good (wild-type) activity (roughly 1 × 10^−8 KI))
B4	+++ (Good (wild-type) activity (roughly 1 × 10^−8 KI))
